Experimental data published in patent publication US20140208457, “Nuclease Fusion Protein and Uses Thereof” (BASF PLANT SCIENCE COMPANY GMBH, published 2014).

B1: S, I-SceI site only (dsDNA)
DNA 1: TAGGGATAACAGGGTAAT
DNA 2: ATTACCCTGTTATCCCTA
B2: S6P6S tripartite site I-SceI-PvuII-I-SceI (dsDNA)
DNA 1: TAGGGATAACAGGGTAATGGTACTCAGCTGATTCATATTACCCTGTTATCCCTA
DNA 2: TAGGGATAACAGGGTAATATGAATCAGCTGAGTACCATTACCCTGTTATCCCTA

Molecular target: T1, P(T46G,Y94F)-L(6)-Ss* PvuII/I-SceI fusion protein (artificial (Proteus vulgaris PvuII; …)
T1 chain: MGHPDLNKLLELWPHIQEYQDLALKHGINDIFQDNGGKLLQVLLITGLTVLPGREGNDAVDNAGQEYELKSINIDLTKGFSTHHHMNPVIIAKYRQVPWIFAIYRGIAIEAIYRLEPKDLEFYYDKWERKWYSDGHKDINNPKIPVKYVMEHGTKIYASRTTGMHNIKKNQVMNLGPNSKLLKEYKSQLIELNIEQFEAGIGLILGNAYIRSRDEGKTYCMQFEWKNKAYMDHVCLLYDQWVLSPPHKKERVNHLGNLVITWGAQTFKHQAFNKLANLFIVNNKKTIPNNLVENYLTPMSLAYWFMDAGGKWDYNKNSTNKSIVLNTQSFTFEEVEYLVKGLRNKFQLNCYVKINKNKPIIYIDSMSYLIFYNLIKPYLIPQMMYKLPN
Assay: EMSA; 1-150 nM enzyme, 2 nM DNA, KG buffer without Mg, room temperature
Details: tags: C-terminal Strep-tag (vector pASK-IBA63b-plus), chain copies: 2 (inferred, PvuII homodimer)
Procedure: For the determination of binding constants of the fusion enzymes, EMSAs with radioactive labeled PCR-fragments were done. The shift fragments were created via PCR using [α³²P] dATP. One fragment contained the addressed site (S6P6S; A), just an I-SceI site (S; B) or just a PvuII site (P; C). 2 nM of the radiolabeled substrate were incubated with fusion enzyme at concentrations ranging from 1-150 nM in optimized KG Buffer without magnesium for 30 min at room temperature. After adding 1 μl 87% glycerol the samples were loaded onto a 6% polyacrylamid Tris-Acetate (pH 8.5) gel and run for 2 h at 10V/cm. The bands were visualized using the InstantImager system (Packard).

Binder | binding result (label: 32P (PCR fragment)) | binding result (label: 32P (EMSA PCR fragment))
B1 | no binding | 
B2 |  | binds
